Columns and labels:
[1] = tested on: alkylated and reduced resistin
Chain of alkylated and reduced resistin (Q9HD89 19-108): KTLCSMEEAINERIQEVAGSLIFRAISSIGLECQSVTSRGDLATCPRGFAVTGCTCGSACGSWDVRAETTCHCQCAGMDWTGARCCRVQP

Chain of trypsin (P00761 9-231): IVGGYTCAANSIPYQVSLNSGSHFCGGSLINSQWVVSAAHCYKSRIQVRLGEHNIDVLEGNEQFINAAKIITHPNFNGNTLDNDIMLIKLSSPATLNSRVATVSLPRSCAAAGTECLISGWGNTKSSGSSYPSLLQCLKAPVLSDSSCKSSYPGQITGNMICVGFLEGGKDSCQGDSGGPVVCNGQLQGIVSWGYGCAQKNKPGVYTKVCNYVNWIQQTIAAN
Chain of native resistin (Q9HD89 19-108): as the sequence (Q9HD89 19-108) above

| Substance | cleavage of resistin in vitro (24 hr digestion, SDS-PAGE) [1] | proteolytic cleavage (preliminary protease digestion experiments, data not shown) (native resistin) |
| --- | --- | --- |
| cathepsin E | incubation with HIV-1 protease, cathepsin D and cathepsin E resulted in the appearance of a ca. 7 kDa resistin cleavage product |  |
| trypsin | resistin was completely degraded by the non-specific protease, trypsin | native resistin was refractory to proteolytic cleavage by trypsin, suggestive of a highly folded state (data not shown) |
| cathepsin D | incubation with HIV-1 protease, cathepsin D and cathepsin E resulted in the appearance of a ca. 7 kDa resistin cleavage product |  |
| HIV-1 protease | incubation with HIV-1 protease, cathepsin D and cathepsin E resulted in the appearance of a ca. 7 kDa resistin cleavage product |  |

Reference: patent US20080004209
